Reference: US20200255511A1 (TILLOTTS PHARMA, published 2020)
Substitutions are numbered along the chain they refer to. Names may count otherwise.

T1: CD32b (UniProt P31994 43-217)
T1 construct: Captured by its His-tag
T1 sequence (looked up): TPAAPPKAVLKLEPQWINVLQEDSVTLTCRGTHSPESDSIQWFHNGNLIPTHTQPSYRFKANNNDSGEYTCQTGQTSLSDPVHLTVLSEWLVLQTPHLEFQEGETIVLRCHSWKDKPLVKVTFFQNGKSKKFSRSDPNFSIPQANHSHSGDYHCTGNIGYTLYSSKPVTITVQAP

T2: CD32a (H) (UniProt P12318 36-218)
T2 construct: Captured by its His-tag
T2 sequence (looked up): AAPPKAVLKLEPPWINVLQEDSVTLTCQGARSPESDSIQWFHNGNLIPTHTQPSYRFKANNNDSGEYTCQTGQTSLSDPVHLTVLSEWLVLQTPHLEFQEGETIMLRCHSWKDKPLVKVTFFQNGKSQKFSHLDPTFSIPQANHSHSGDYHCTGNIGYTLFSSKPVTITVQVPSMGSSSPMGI

T3: CD32a (R) (UniProt P12318 36-218)
T3 construct: Captured by its His-tag
T3 sequence (looked up): T2 sequence (looked up) with H132R

B1: infliximab (antibody)
chain 1: not shown
chain 2: DILLTQSPAILSVSPGERVSFSCRASQFVGSSIHWYQQRTNGSPRLLIKYASESMSGIPSRFSGSGSGTDFTLSINTVESEDIADYYCQQSHSWPFTFGSGTNLEVKRTVAAPSVFIFPPSDEQLKSGTASVVCLLNNFYPREAKVQWKVDNALQSGNSQESVTEQDSKDSTYSLSSTLTLSKADYEKHKVYACEVTHQGLSSPVTKSFNRGEC
B2: Ab-wt (antibody, human IgG1, kappa)
heavy: not shown
light: DIQMTQSPSSLSASVGDRVTIKCQASQSIFSGLAWYQQKPGKAPKLLIYGASKLASGVPSRFSGSGSGTEFTLTISGLQPADFATYYCQSYYYSSSSSDGSYAFGGGTKLTVLGRTVAAPSVFIFPPSDEQLKSGTASVVCLLNNFYPREAKVQWKVDNALQSGNSQESVTEQDSKDSTYSLSSTLTLSKADYEKHKVYACEVTHQGLSSPVTKSFNRGEC
notes: Human IgG1 anti-TNFα antibody with wild-type Fc; also called parent antibody; wild-type antibody
B3: Ab-AA (antibody, human IgG1, kappa)
heavy: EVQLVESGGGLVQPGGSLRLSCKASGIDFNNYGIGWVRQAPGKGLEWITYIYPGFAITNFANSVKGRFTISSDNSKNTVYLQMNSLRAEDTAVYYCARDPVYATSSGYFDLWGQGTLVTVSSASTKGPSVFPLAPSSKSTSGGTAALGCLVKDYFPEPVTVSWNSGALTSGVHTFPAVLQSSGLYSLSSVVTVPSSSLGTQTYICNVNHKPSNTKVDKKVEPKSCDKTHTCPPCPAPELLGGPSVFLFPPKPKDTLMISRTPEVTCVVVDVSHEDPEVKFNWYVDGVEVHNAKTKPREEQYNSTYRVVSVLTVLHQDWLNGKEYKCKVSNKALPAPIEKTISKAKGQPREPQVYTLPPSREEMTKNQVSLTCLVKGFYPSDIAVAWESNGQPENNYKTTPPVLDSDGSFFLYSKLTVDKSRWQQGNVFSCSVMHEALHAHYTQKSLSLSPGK
light: B2 light
notes: Human IgG1; also called E380A/N434A variant
B4: Ab-AA-2FF (antibody, human IgG1, kappa)
heavy: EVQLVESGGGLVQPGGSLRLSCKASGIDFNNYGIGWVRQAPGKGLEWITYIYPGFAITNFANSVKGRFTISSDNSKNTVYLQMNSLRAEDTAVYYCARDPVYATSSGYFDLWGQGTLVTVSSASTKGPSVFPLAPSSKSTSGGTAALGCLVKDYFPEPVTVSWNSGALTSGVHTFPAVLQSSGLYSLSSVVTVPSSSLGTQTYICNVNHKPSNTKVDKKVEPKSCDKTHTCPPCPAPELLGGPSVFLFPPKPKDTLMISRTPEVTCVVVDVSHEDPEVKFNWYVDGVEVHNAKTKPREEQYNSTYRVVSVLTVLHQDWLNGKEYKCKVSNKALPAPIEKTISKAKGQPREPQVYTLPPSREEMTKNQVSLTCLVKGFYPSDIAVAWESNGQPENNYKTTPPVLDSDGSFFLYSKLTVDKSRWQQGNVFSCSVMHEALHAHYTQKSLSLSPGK
light: B2 light
modifications: N-glycans at N297 (EU) with greatly reduced fucose (<10% fucosylated); produced in the presence of 2-deoxy-2-fluoro-fucose (2FF)
notes: human IgG1; also called non-fucosylated variant of Ab-AA

Tests used:
human C1q = human C1q (human, UniProt P02745 23-245; P02746 28-253; P02747 29-245); assay: ELISA: antibody titrated onto plate-coated human TNFα (1 µg/mL), then human C1q (0.5 µg/mL), detected with rabbit anti-human C1q and HRP anti-rabbit IgG, absorbance 620 nm
Sequence of human C1q (P02745 23-245 limits assumed, chain 1 of 3): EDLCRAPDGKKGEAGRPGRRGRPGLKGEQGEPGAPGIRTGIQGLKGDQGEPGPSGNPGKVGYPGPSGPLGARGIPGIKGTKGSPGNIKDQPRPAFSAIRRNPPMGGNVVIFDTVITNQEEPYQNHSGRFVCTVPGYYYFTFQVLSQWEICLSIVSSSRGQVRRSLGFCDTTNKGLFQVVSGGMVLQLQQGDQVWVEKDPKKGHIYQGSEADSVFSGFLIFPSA
Sequence of human C1q (P02746 28-253 limits assumed, chain 2 of 3): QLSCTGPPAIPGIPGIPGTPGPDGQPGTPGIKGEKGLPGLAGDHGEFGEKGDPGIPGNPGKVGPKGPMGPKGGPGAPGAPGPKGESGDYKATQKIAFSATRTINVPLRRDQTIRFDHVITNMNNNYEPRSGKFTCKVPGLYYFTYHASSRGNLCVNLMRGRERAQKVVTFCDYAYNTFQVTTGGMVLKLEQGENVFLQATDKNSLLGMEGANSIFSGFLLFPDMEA
Sequence of human C1q (P02747 29-245 limits assumed, chain 3 of 3): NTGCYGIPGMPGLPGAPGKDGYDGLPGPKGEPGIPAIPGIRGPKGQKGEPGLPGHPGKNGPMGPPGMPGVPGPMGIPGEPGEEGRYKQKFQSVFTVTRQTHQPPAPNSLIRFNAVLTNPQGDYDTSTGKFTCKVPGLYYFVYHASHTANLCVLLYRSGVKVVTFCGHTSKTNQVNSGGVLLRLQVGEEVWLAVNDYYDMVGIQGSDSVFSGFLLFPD
Protocol: ELISA was performed using 96-well MaxiSorp plates where the wells were coated with human TNFα diluted to 1 μg/mL in PBS. After incubation O/N at 4° C., the plates were blocked with PBS containing 4% skimmed milk for 1 h and washed four times with PBS containing 0.05% Tween-20 (PBS-T). Then, titrated amounts of the anti-TNFα IgG antibodies were diluted in PBS-T, added and incubated for 1h at RT. After washing using PBS-T, human C1q (0.5 μg/mL) was diluted in 0.1 M Veronal buffer (0.25 mM CaCl₂ and 0.8 mM MgCl₂ pH 7.2), added to the wells and incubated for 1 h. Subsequently, the wells were washed as above before rabbit anti-human C1q diluted 1:5000 in PBS-T was added to the wells and incubated for 1 h. After washing, an HRP-conjugated anti-rabbit IgG from donkey diluted 1:5000 in PBS-T was added. Subsequently, the wells were washed and 100 μL 3,3′,5,5′-Tetramethylbenzidine substrate was added to each well. The absorbance was measured at 620 nm using a Sunrise spectrophotometer.
The anti-TNFα antibody variants were captured on human TNFα before human C1q was added.

CD32b = molecular target: T1, CD32b; assay: SPR (Biacore), His-tagged FcγR captured on anti-His chip, antibody as analyte, 25 °C
Protocol: (§1) Affinity to FcγRs was measured by Biacore. A CM5 chip was prepared using standard amine immobilisation Biacore procedures. Upon insertion of a CM5 chip the system was primed and then normalised with BIA-normalizing solution (Biacore Preventative Maintenance Kit 2). The chip was added to the system with PBS-T running buffer; prior to immobilisation the chip surface was primed with three injections of 50 mM NaOH. FcγRs were immobilised on the chip surface using a His-tag capture system. The anti-His tag chip was prepared according to the Biacore kit instructions, with ˜12000 RU's of the antibody deposited on all 4 flow cells. To remove non-covalently bound material from all the chip flow cells, three 30 second 10 mM glycine pH 1.5 washes were performed. The Fcγ receptors were diluted in PBS-T to a range of 0.5-2 μg/mL, with 2.5-5.0 μL injected onto the chip generating capture levels between 60 and 200 RU's. Antibodies were diluted into PBS-T prior to analysis. Single cycle kinetics were used to estimate the steady state affinity. For each single cycle analysis cycle a titration of 5 antibody concentrations were injected over the FcγR ligand and then the dissociation of the complex was measured. The surface was regenerated using the recommended solution, 10 mM glycine pH 1.5 for the anti-His capture surface. A double referencing method was employed in which data from the ligand bound capture surface (fc 2 and 4) were subtracted from the references surfaces where no ligand was captured (fc 1 and 3 respectively). Blank injections of buffer were run for every antibody titration cycle and then subtracted from analyte injection cycles, to correct for small changes in the ligand capture surface. All analysis was performed at 25° C. and the sample rack was incubated at 10° C. during experimental runs. Each experiment was run at least three times.

CD64 = molecular target: T4, CD64 (UniProt P12314 16-288, limits assumed); assay: as above
T4 construct: Captured on the chip by its His-tag; also called Fcγ receptor CD64
T4 sequence (P12314 16-288 limits assumed): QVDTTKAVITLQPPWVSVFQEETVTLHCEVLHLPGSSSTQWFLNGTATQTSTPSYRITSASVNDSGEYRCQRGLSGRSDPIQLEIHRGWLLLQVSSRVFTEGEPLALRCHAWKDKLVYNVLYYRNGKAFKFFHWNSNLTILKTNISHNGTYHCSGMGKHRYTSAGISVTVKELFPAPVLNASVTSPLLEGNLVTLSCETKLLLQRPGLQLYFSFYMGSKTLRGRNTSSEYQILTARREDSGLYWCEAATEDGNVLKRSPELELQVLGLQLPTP
Protocol: as §1

CD32a (H) = molecular target: T2, CD32a (H); assay: as above
Protocol: as §1

CD16a (V) [1] = molecular target: T5, CD16a (V) (UniProt P08637 17-208); assay: as above
T5 construct: Captured by its His-tag
T5 sequence (P08637 17-208 F176V limits assumed): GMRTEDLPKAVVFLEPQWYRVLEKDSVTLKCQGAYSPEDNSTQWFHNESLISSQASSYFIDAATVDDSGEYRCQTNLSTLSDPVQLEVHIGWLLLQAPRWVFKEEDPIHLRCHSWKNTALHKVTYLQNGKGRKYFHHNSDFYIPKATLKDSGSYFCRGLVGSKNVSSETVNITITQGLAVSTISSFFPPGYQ
Protocol: as §1
(§2) The mean and standard deviation affinity calculated from two or more independent experiments is shown.

human TNFα [2] = molecular target: T6, human TNFα (human, UniProt P01375 77-233); assay: SPR (Biacore), antibody captured on Protein A, TNFα as analyte, single cycle kinetics, 25 °C
T6 construct: also called recombinant TNFα
T6 sequence (P01375 77-233 limits assumed): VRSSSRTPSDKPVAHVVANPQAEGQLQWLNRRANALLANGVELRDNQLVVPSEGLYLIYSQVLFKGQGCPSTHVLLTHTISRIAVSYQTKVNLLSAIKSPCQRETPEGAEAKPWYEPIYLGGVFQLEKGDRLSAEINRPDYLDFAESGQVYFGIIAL
Protocol: Affinity to TNFα was measured by Biacore. A CM5 chip was prepared using standard amine immobilisation Biacore procedures. Upon insertion of a CM5 chip the system was primed and then normalised with BIA-normalising solution (Biacore Preventative Maintenance Kit 2). The chip was added to the system with PBS-T running buffer; prior to immobilisation the chip surface was primed with three injections of 50 mM NaOH. Protein A was immobilised on the chip surface. For this, the protein was diluted to 5 μg/mL into 10 mM acetate buffer at pH 4.5 and injected so to generate a bound response of ˜1000 RU's in all 4 flow cells. To remove non-covalently bound material from all the chip flow cells, three 15 second 50 mM NaOH washes were performed. On the Protein A chip, antibody was captured in flow cells 2 and 4, with flow cells 1 and 3 used for reference subtraction. The trial antibodies were diluted in PBS-T to 10 nM and 2.5-7.5 uL injected to obtain 120 RU of captured antibody. The analyte TNFα was prepared at 500 μg/mL in water as directed by the supplier and further diluted into the running buffer Phosphate Buffered Saline Tween-20 (PBS-T). Single cycle kinetics was used to estimate the steady state affinity. For each single cycle analysis cycle a titration of 5 analyte concentrations were injected over the ligand and then the dissociation of the complex was measured. The surface was regenerated using glycine pH 1.7. A double referencing method was employed in which data from the ligand bound capture surface (fc 2 and 4) were subtracted from the references surfaces where no ligand was captured (fc 1 and 3 respectively). Blank injections of buffer were run every 3-4 cycles and then subtracted from analyte injection cycles, to correct for small changes in the ligand capture surface. Repeat injections of analyte at the start and end of each analytical run were used to check for sample degradation, or changes in the instrument performance. All analysis was performed at 25° C. and the sample rack was incubated at 10° C. during experimental runs. Each experiment was run at least three times. A 1-to-1 binding model was used to fit the resulting kinetic data.

[3] = molecular target: T7, monomeric His-tagged human FcRn (human, UniProt P55899 24-297; P61769 21-119, limits assumed); assay: SPR (Biacore 3000) at pH 6.0, antibody amine-coupled, monomeric His-tagged hFcRn as analyte, 25 °C; pH 6.0
T7 construct: also called hFcRn
Protocol: (§3) SPR was performed using a Biacore 3000 instrument with CM5 sensor chips coupled with anti-TNFα IgG1 antibodies (˜500 resonance units (RU)) using amine-coupling chemistry as described by the manufacturer. The coupling was performed by injecting 2.0 ug/mL of each protein in 10 mM sodium acetate, pH 4.5, using the amine-coupling kit (GE Healthcare). […] All SPR experiments were conducted at 25° C. with a flow rate of 40 ul/min. Binding data were zero-adjusted, and reference cell value subtracted. The Langmuir 1:1 ligand binding model provided by the BIAevaluation software (version 4.1) was used to determine the binding kinetics.

CD32a (R) = molecular target: T3, CD32a (R); assay: SPR (Biacore), His-tagged FcγR captured on anti-His chip, antibody as analyte, 25 °C
Protocol: as §1

CD16b (NA2) = molecular target: T8, CD16b (NA2) (UniProt O75015 17-200, limits assumed); assay: as above
T8 construct: Captured by its His-tag
T8 sequence (O75015 17-200 N65S limits assumed): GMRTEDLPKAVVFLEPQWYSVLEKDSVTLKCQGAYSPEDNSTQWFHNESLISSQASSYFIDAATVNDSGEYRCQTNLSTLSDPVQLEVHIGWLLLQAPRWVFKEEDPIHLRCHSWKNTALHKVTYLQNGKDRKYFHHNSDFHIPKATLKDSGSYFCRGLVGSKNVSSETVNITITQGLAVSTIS
Protocol: as §1, §2

CD16a (F) = molecular target: T9, CD16a (F) (UniProt P08637 17-208); assay: as above
T9 construct: Captured by its His-tag
T9 sequence (P08637 17-208 limits assumed): as the sequence (P08637 17-208 F176V limits assumed) above, with V160F counted along it
Protocol: as §1, §2

human TNFα [4] = molecular target: T6, human TNFα; assay: cell-based or functional assay
[5] = molecular target: T7, monomeric His-tagged human FcRn; assay: SPR at pH 6.0, KD against that of Ab-wt; pH 6.0; fold change from Ab-wt
Protocol: as §3

[6] = molecular target: T7, monomeric His-tagged human FcRn; assay: SPR at pH 6.0, KD against that of IFX; pH 6.0; fold change from IFX
Protocol: as §3

CD16a (V) [7] = molecular target: T5, CD16a (V); assay: SPR (Biacore), His-tagged FcγR captured; the sentence names no reference (Ab-wt by Table 5)
Protocol: Affinity to FcγRs was measured by Biacore. A CM5 chip was prepared using standard amine immobilisation Biacore procedures. Upon insertion of a CM5 chip the system was primed and then normalised with BIA-normalizing solution (Biacore Preventative Maintenance Kit 2). The chip was added to the system with PBS-T running buffer; prior to immobilisation the chip surface was primed with three injections of 50 mM NaOH. FcγRs were immobilised on the chip surface using a His-tag capture system. The anti-His tag chip was prepared according to the Biacore kit instructions, with ˜12000 RU's of the antibody deposited on all 4 flow cells. To remove non-covalently bound material from all the chip flow cells, three 30 second 10 mM glycine pH 1.5 washes were performed. The Fcγ receptors were diluted in PBS-T to a range of 0.5-2 μg/mL, with 2.5-5.0 μL injected onto the chip generating capture levels between 60 and 200 RU's. Antibodies were diluted into PBS-T prior to analysis. Single cycle kinetics were used to estimate the steady state affinity. For each single cycle analysis cycle a titration of 5 antibody concentrations were injected over the FcγR ligand and then the dissociation of the complex was measured. The surface was regenerated using the recommended solution, 10 mM glycine pH 1.5 for the anti-His capture surface. […]

EC50 (read off the curve) (human C1q) [µg/mL] | Kd (CD32b) [nM] | Kd (CD64) [nM] | Kd (CD32a (H)) [nM] | Kd (CD16a (V) [1]) [nM] | Kd (human TNFα [2]) [nM] | koff (human TNFα [2]) [s⁻¹] | kon (human TNFα [2]) [M⁻¹ s⁻¹] | Kd [3] [nM] | Kd (CD32a (R)) [nM] | Kd (CD16b (NA2)) [nM] | Kd (CD16a (F)) [nM] | IC50 (read off the curve) (human TNFα [4]) [µg/mL] | Fold change from wt [5] [fold] | Fold change from IFX [6] [fold] | fold increase in affinity (CD16a (V) [7]) [fold] | Binder
~0.6 |  |  |  |  |  |  |  |  |  |  |  |  |  |  |  | B1
 | 3140 | 2.92 | 670 | 184 | 0.00413 | 3.45e-05 | 8.37e+06 | 1000 |  |  |  |  |  |  |  | B2
~0.6 | 2170 | 3.59 | 1410 | 707 | 0.00247 | 2.06e-05 | 8.54e+06 | 119 | 2050 | 2240 | 1760 | ~0.008 | 8.4 | 3.6 |  | B3
~0.7 | 1370 | 3.17 | 1170 | 39.4 | 0.00773 | 5.84e-05 | 7.55e+06 | 103 | 1560 | 470 | 170 | ~0.008 | 9.7 | 4.1 | 4.7 | B4
